Common to all, as to assay: SPR; BIAcore X-100; FGF8b (20 μg/ml in 10 mM sodium acetate, pH 6.0) or other FGFs (10 mM sodium acetate at optimal pH) immobilised on a CM5 sensor chip by EDC/NHS; peptide injected (ARPCA 8 μM to 2000 μM), 4 min at 30 μl/min, 10 min dissociation, in HBS; equilibrium values fitted with the Langmuir equation for monovalent binding
What all share (settings): both partners purified

For one experiment, the target named is T1, FGF7 (UniProt P21781 32-194).
T1 construct: fibroblast growth factor 7 (FGF7)
T1 sequence (looked up): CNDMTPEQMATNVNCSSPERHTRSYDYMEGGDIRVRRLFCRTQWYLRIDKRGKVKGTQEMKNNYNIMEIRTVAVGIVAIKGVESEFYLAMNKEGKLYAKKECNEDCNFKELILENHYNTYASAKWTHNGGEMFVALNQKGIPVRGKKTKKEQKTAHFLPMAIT

In the next experiment the target is T2, FGF16 (UniProt O43320 1-207).
T2 construct: fibroblast growth factor 16 (FGF16)

The target in another experiment is T3, FGF17 (UniProt O60258 23-216).
T3 construct: fibroblast growth factor 17 (FGF17)
T3 sequence (looked up): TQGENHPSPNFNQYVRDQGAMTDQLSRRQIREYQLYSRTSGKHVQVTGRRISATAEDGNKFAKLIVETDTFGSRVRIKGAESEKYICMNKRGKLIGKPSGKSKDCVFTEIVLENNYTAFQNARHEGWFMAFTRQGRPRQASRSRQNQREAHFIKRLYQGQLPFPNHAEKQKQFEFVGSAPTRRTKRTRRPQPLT

Another experiment deals with T4, FGF22 (UniProt Q9HCT0 23-170).
T4 construct: fibroblast growth factor 22 (FGF22)
T4 sequence (looked up): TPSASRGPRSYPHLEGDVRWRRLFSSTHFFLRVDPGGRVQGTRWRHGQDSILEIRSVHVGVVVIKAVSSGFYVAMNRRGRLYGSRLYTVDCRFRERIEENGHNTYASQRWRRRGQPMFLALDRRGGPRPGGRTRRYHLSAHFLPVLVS

The target in another experiment is T5, FGF18 (UniProt O76093 28-207).
T5 construct: fibroblast growth factor 18 (FGF18)
T5 sequence (looked up): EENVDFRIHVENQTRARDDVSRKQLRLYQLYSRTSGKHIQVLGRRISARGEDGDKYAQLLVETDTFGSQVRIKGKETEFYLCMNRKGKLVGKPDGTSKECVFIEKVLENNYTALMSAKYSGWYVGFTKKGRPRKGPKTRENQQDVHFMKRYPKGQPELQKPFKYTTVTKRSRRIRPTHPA

A further experiment concerns the target T6, FGF20 (UniProt Q9NP95 1-211).
T6 construct: fibroblast growth factor 20 (FGF20)

In the next experiment the target is T7, FGF5 (UniProt P12034 21-268).
T7 construct: fibroblast growth factor 5 (FGF5)
T7 sequence (looked up): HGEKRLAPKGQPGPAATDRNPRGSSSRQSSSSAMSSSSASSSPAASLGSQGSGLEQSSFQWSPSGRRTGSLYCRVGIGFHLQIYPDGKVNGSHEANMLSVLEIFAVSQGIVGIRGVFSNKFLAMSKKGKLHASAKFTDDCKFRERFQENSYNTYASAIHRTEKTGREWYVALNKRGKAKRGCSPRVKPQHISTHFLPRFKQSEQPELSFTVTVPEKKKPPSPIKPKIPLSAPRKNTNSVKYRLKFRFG

T6 sequence (Q9NP95 whole entry): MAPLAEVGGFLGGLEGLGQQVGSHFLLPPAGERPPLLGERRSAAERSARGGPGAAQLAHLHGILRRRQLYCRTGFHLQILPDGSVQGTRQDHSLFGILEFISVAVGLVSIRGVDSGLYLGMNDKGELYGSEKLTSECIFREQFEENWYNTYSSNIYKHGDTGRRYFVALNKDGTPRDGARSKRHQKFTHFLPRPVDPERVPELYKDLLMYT

B1: Ac-ARPCA-NH2, acetylated pentapeptide corresponding to PTX3(100-104) (peptide)
peptide: Ac-ARPCA-NH2
notes: long pentraxin-3 (PTX3), residues 100-104 of the N-terminal extension; source: synthetic peptide, provided by R. Longhi and A. Gori (CNR, Milano, Italy)
The Kd is the constant that tells how readily two partners part at equilibrium. Read a low Kd as higher affinity. Take B1: the dissociation constant (Kd) turned out to be 885 µM in the experiment with FGF7; 112 µM with FGF16; 476 µM with FGF17; 129 µM with FGF22; 26 µM in the experiment with FGF18; 264 µM with FGF20. For the same molecule, in the experiment with FGF5, the Kd worked out at 299 µM.

For the origin of these results see publication PMC4537050, “A long pentraxin-3-derived pentapeptide for the therapy of FGF8b-driven steroid hormone-regulated cancers” (Oncotarget, 2015).
